US20250263499A1 (SHENGHE CHINA BIOPHARMACEUTICAL, published 2025)
Positions count from the first letter of the chain named.

T1: CD24 on tumor cells (MCF7, SKOV3, HT55, huCD24-MDA-MB-231, CD24-SKOV3) (human, UniProt P25063 27-59)
T1 construct: whole, on cells; The cell line of each result is named under assay
T1 chain (looked up): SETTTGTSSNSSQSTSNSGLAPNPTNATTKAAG

T2: human CD24 protein (ACRO) (human, UniProt P25063 27-59)
T2 construct: also called analyte human CD24 protein
T2 chain (looked up): T1 chain (looked up)

B1: hu-02-L1H8 (antibody, human IgG1, kappa, V domains shown)
VH: EVQLQESGPGLVKPSQTLSLTCTVSGYSITSGYTWHWIRQFPGNKLEWMGHIQYTGNTKYNPSLESRITISRDTSKNQFSLKLSSVTAADTATYYCARGSTNSNDYWGQGTLVTVSS
VL: DIVMTQSPDSLAVSLGERATINCKSSQSLLYSNDQKNYLAWYQQKPGQPPKLLIYWASTRESGVPDRFSGSGSGTDFTLTISSLQAEDVAVYYCQQYFIYPLTFGGGTKLELKR
notes: also called humanized antibody hu-02-L1H8
B2: humanized antibody hu-02-L1H1 (antibody, human IgG1, kappa, V domains shown)
VH: B1 VH with E1Q, F41H, N44K, K45G, M49I, I68V, R72V, T93V
VL: B1 VL
notes: Humanized from ms-02: light chain L1, heavy chain H1
B3: humanized antibody hu-02-L1H7 (antibody, human IgG1, kappa, V domains shown)
VH: B1 VH with M49I
VL: B1 VL
notes: Humanized from ms-02: light chain L1, heavy chain H7
B4: chimeric antibody CH-02 (antibody, human IgG1, kappa, V domains shown)
VH: EVQLQESGPDLVKPSQSLSLTCTVTGYSITSGYTWHWIRQFPGNKLEWMGHIQYTGNTKYNPSLESRISITRETSKNQFFLQLNSVTTEDTGTYYCARGSTNSNDYWGQGTSVTVSS
VL: DIVMTQSPSSLAVSVGEKVTVSCKSSQSLLYSNDQKNYLAWYQQKPGQSPKLLIYWASTRESGVPDRFTGSGSGTDFTLTITSVKAEDLAVYYCQQYFIYPLTFGAGTKLELKR
notes: ms-02 variable regions on a human IgG framework, expressed in CHO cells
B5: chimeric antibody CH-01 (antibody, human IgG1, kappa, V domains shown)
VH: QIQLVQSGPELKKPGETVKISCKASGYIFTDYAIHWVKQAPGKGLKWMGFINTATGEPTYADDFKGRFAFSLETSASTAYLQVNSLKNEDTATYFCTSGVHWGQGTTLTVSS
VL: QIVLTQSPAIMSASLGEEITLTCSASSSVSSMHWYQQKSGTSPKLLIYSTSNLASGVPSRFSGSGSGTFYSLTISSVESEDAADYYCHHWTSYMYTFGGGTKLEIKR
notes: ms-01 variable regions on a human IgG framework, expressed in CHO cells
B6: murine anti-CD24 antibody ms-01 (antibody, V domains shown)
VH: B5 VH
VL: QIVLTQSPAIMSASLGEEITLTCSASSSVSSMHWYQQKSGTSPKLLIYSTSNLASGVPSRFSGSGSGTFYSLTISSVESEDAADYYCHHWTSYMYTFGGGTKLEIK
notes: Mouse antibody from a hybridoma
B7: humanized antibody hu-01-L2H3 (antibody, human IgG1, kappa, V domains shown)
VH: QVQLVQSGSELKKPGASVKVSCKASGYIFTDYAIHWVKQAPGQGLEWMGFINTATGEPTYADDFKGRFVFSLDTSVSTAYLQISSLKAEDTAVYFCTSGVHWGQGTLVTVSS
VL: DIQMTQSPSTLSASVGDRVTITCSASSSVSSMHWYQQKPGKAPKLLIYSTSNLASGVPSRFSGSGSGTEYTLTISSLQPDDFATYYCHHWTSYMYTFGGGTKVEIKR
notes: Humanized from ms-01: light chain L2, heavy chain H3
B8: humanized antibody hu-01-L3H4 (antibody, human IgG1, kappa, V domains shown)
VH: B7 VH with E46K
VL: B7 VL with M4L, A42S
notes: Humanized from ms-01: light chain L3, heavy chain H4
B9: humanized antibody hu-01-L1H2 (antibody, human IgG1, kappa, V domains shown)
VH: B7 VH with K38R
VL: B7 VL with Y70F
notes: Humanized from ms-01: light chain L1, heavy chain H2
B10: humanized antibody hu-01-L3H3 (antibody, human IgG1, kappa, V domains shown)
VH: B7 VH
VL: B7 VL with M4L, A42S
notes: Humanized from ms-01: light chain L3, heavy chain H3
B11: humanized antibody hu-01-L2H1 (antibody, human IgG1, kappa, V domains shown)
VH: B7 VH with K38R, F95Y, T97A, S98R
VL: B7 VL
notes: Humanized from ms-01: light chain L2, heavy chain H1
B12: humanized antibody hu-01-L1H4 (antibody, human IgG1, kappa, V domains shown)
VH: B7 VH with E46K
VL: B7 VL with Y70F
notes: Humanized from ms-01: light chain L1, heavy chain H4
B13: humanized antibody hu-01-L1H3 (antibody, human IgG1, kappa, V domains shown)
VH: B7 VH
VL: B7 VL with Y70F
notes: Humanized from ms-01: light chain L1, heavy chain H3
B14: humanized antibody hu-01-L3H2 (antibody, human IgG1, kappa, V domains shown)
VH: B7 VH with K38R
VL: B7 VL with M4L, A42S
notes: Humanized from ms-01: light chain L3, heavy chain H2
B15: humanized antibody hu-01-L2H2 (antibody, human IgG1, kappa, V domains shown)
VH: B7 VH with K38R
VL: B7 VL
notes: Humanized from ms-01: light chain L2, heavy chain H2
B16: humanized antibody hu-01-L2H4 (antibody, human IgG1, kappa, V domains shown)
VH: B7 VH with E46K
VL: B7 VL
notes: Humanized from ms-01: light chain L2, heavy chain H4

Assays:
[1] = biological target: CD24 on tumor cells (MCF7, SKOV3, HT55, huCD24-MDA-MB-231, CD24-SKOV3) (human) (UniProt P25063); assay: flow cytometry on MCF7 cells (MFI); fit value given for a flat control curve; unit inferred, unit from the x axis label
[2] = biological target: CD24 on tumor cells (MCF7, SKOV3, HT55, huCD24-MDA-MB-231, CD24-SKOV3) (human) (UniProt P25063); assay: flow cytometry on huCD24-MDA-MB-231 cells (MFI); fit value given for a flat control curve; unit inferred, unit from the x axis label
[3] = biological target: CD24 on tumor cells (MCF7, SKOV3, HT55, huCD24-MDA-MB-231, CD24-SKOV3) (human) (UniProt P25063); assay: flow cytometry on SKOV3 cells (MFI); fit value given for a flat control curve; unit inferred, unit from the x axis label
[4] = biological target: CD24 on tumor cells (MCF7, SKOV3, HT55, huCD24-MDA-MB-231, CD24-SKOV3) (human) (UniProt P25063); assay: flow cytometry on SKOV3 cells (MFI)
[5] = biological target: T1, CD24 on tumor cells (MCF7, SKOV3, HT55, …); assay: flow cytometry on MCF7 cells (MFI)
[6] = biological target: T1, CD24 on tumor cells (MCF7, SKOV3, HT55, …); assay: flow cytometry on huCD24-MDA-MB-231 cells (MFI); table under the graph prints no unit, unit from the x axis label
[7] = biological target: T2, human CD24 protein (ACRO); assay: BLI (ForteBio Octet RED96e), antibody immobilised, human CD24 protein as analyte
Protocol: ForteBio […] (BLI) was used to detect the affinity of humanized antibodies. The sample to be tested (solidified) was diluted to 20 μg/mL with 0.02% PBST (buffer). The analyte human CD24 protein (ACRO) was diluted to 100 nM with 0.02% PBST (buffer) as the initial concentration, and then diluted by double gradient for 7 gradients starting from this concentration, and a negative control (buffer) was performed.
The molecular interaction analysis instrument (ForteBio; Octet RED96e) was operated, and 200 μL of curing buffer (0.02% PBST) was added to a pre-wetted plate, and the sensor was pre-wetted for 5-10 min. Diluted samples and other reagents for assay were added into wells in the sample plate corresponding to the pre-wetted sensor.

[8] = biological target: T1, CD24 on tumor cells (MCF7, SKOV3, HT55, …); assay: flow cytometry on MCF7 cells (MFI); table under the graph prints no unit, unit from the x axis label
Protocol: (§1) The commercial antibody SN3 (ABCOM; ab134375) and IgG1 isotype control were used as control. MCF7, SKOV3, HT55 or huCD24-MDA-MB-231 cells were taken and transferred to a centrifuge tube, and centrifuged at 1000 rpm for 5 min. 100 μL of MCF7, SKOV3, HT55, or huCD24-MDA-MB-231 cells were spread in a 96 U plate, respectively, and washed twice with PBS. 100 μL of the fusion supernatant was added, and diluted for 8 gradients. Cells were incubated at 4° C. for 60 minutes, and then washed twice with excess FACS buffer. Cells were resuspended in 100 μL of FACS buffer and sheep anti-mouse secondary antibody-FITC (ABCOM; ab6785) was added to the samples, incubated for 30 minutes and washed twice with excess FACS buffer. Cells were fixed in fixation buffer and subsequently analyzed by flow cytometry.
(§2) The binding activity of the chimeric antibodies CH-01 and CH-02 and tumor cells was detected according to the method of Example 6.

[9] = biological target: T1, CD24 on tumor cells (MCF7, SKOV3, HT55, …); assay: flow cytometry on SKOV3 cells (MFI); table under the graph prints no unit, unit from the x axis label
Protocol: as §1, §2

[10] = biological target: T1, CD24 on tumor cells (MCF7, SKOV3, HT55, …); assay: flow cytometry on MCF7 cells (MFI)
Protocol: as §1

| Molecule | Kd [7] [nM] | also measured |
| --- | --- | --- |
| IgG1 isotype control (antibody) |  | EC50 [1]: 0.142 µg/mL; EC50 [2]: 3.49 µg/mL; EC50 [3]: 49.7 µg/mL |
| commercial antibody SN3 (ABCOM; ab134375) |  | EC50 (read off the curve) [4]: 2 µg/mL |
| B1 |  | binding result [5]: binds |
| B2 | 62.7 | EC50 [6]: 2.08 µg/mL |
| B3 | 20.5 | EC50 [6]: 3.42 µg/mL |
| B4 | 11.9 | EC50 [6]: 4.03 µg/mL |
| B5 | 8.08 | EC50 [8]: 1.69 µg/mL; EC50 [9]: 1.2 µg/mL |
| B6 |  | EC50 (read off the curve) [10]: ~2 µg/mL |
| B7 | 9.03 |  |
| B8 | 41.2 |  |
| B9 | 5.58 |  |
| B10 | 12.4 |  |
| B11 |  | binding result [7]: no binding (tested: 100 nM (highest analyte concentration)) |
| B12 | 48.2 |  |
| B13 | 10 |  |
| B14 | 8.29 |  |
| B15 | 10.5 |  |
| B16 | 39.1 |  |
